Experimental data reported in the Immune Epitope Database (IEDB).

Biological target: HLA-A*02:01
Test: IEDB peptide-MHC binding, purified MHC/competitive/fluorescence; ≥ and ≤ were set here for values at or beyond the usual limits of such assays
Conditions: source organism: Homo sapiens

Sequence	IC50 [µM]
GGGPGAGSL	≥ 100
DPAAAFVNQ	≥ 100
VELGGGPGAG	≥ 100
ICSLYQLENY	≥ 100
VEQCCTSICS	≥ 100
TSICSLYQLE	≥ 100
EAEDLQVGQ	≥ 100
VGQVELGGG	≥ 100
PLALEGSLQK	≥ 100
DPAAAFVNQH	≥ 100
SICSLYQLEN	≥ 100
PLLALLALW	≥ 100
PAAAFVNQH	≥ 100
LQPLALEGSL	≥ 100
PDPAAAFVN	≥ 100
AEDLQVGQV	≥ 100
ALLALWGPD	≥ 100
QVELGGGPG	≥ 100
CCTSICSLY	≥ 100
GSLQPLALEG	≥ 100
SLYQLENYCN	≥ 100
PAAAFVNQHL	≥ 100
TSICSLYQL	≥ 100
EDLQVGQVEL	≥ 100
IVEQCCTSI	≥ 100

Sequence	IC50 [µM]
LQVGQVELG	≥ 100
EQCCTSICS	≥ 100
LLALLALWG	≥ 100
LGGGPGAGSL	≥ 100
GQVELGGGPG	≥ 100
AEDLQVGQVE	≥ 100
AFVNQHLCG	≥ 100
ERGFFYTPK	≥ 100
LALEGSLQK	≥ 100
AAAFVNQHLC	≥ 100
GPGAGSLQP	≥ 100
AFVNQHLCGS	≥ 100
SICSLYQLE	≥ 100
GQVELGGGP	≥ 100
QPLALEGSLQ	≥ 100
LALLALWGP	≥ 100
LQPLALEGS	≥ 100
CCTSICSLYQ	≥ 100
AGSLQPLAL	≥ 100
CTSICSLYQ	≥ 100
QVGQVELGGG	≥ 100
PDPAAAFVNQ	≥ 100
DLQVGQVELG	≥ 100
GPDPAAAFVN	≥ 100

Other lines, results leading:

IC50 [µM]	Sequence
≥ 100	LYQLENYCN
≥ 100	LWGPDPAAA
≥ 100	ICSLYQLEN
≥ 100	AGSLQPLALE
≥ 100	ELGGGPGAGS
≥ 100	EDLQVGQVE
≥ 100	GGPGAGSLQ
≥ 100	PGAGSLQPLA
≥ 100	PGAGSLQPL
0.88	ALWGPDPAA
≥ 88	SLQPLALEGS
≥ 100	VELGGGPGA
≥ 100	GAGSLQPLAL
≥ 100	LALWGPDPA
≥ 100	QVELGGGPGA
≥ 100	QVGQVELGG
≥ 100	LGGGPGAGS
≥ 100	LWGPDPAAAF
29.6	LLALLALWGP
≥ 100	EQCCTSICSL
≥ 100	GIVEQCCTS
≥ 100	VEQCCTSIC

IC50 [µM]	Sequence
≥ 100	VGQVELGGGP
≥ 100	DLQVGQVEL
≥ 100	GSLQPLALE
≥ 100	AAFVNQHLCG
≥ 100	QCCTSICSLY
≥ 100	ELGGGPGAG
4.46	WGPDPAAAFV
≥ 100	LQVGQVELGG
≥ 100	LPLLALLALW
≥ 100	QPLALEGSL
≥ 100	WGPDPAAAF
≥ 100	GGGPGAGSLQ
≥ 100	PLALEGSLQ
≥ 100	GPDPAAAFV
≥ 100	GGPGAGSLQP
5.84	LLPLLALLAL
43.5	PLLALLALWG
1.37	LLPLLALLA
1.96	LLALWGPDPA
≥ 97.7	CTSICSLYQL
5.02	AAAFVNQHL
11.8	LPLLALLAL
